{
  "source": "paper doi:10.1101/2024.03.29.587195",
  "about": "(bioRxiv, 2024)",
  "proteins": {"B1": {"name": "CoaXMtb, untagged, recombinant (cryo-EM sample) (natural protein)", "chain": "MLLAIDVRNTHTVVGLLSGMKEHAKVVQQWRIRTESEVTADELALTIDGLIGEDSERLTGTAALSTVPSVLHEVRIMLDQYWPSVPHVLIEPGVRTGIPLLVDNPKEVGADRIVNCLAAYDRFRKAAIVVDFGSSICVDVVSAKGEFLGGAIAPGVQVSSDAAAARSAALRRVELARPRSVVGKNTVECMQAGAVFGFAGLVDGLVGRIREDVSGFSVDHDVAIVATGHTAPLLLPELHTVDHYDQHLTLQGLRLVFERNLEVQRGRLKTAR"}},
  "target": "the molecule itself",
  "assay": "cryo-EM structure",
  "note": "Where “and” joins values, the source holds several entries; their conditions need not be identical. Equal values may be shown once.",
  "data": [
    {"protein": "B1", "values": [
      {"measurement": "stoichiometry N", "value": "6 and 4"}
    ]}
  ]
}
